{"source": "the nanobody polyreactivity screen of Harvey et al. (2022)", "data": [{"test": "yeast display, Sf9 membrane polyspecificity reagent, FACS + sequencing; frameworks hold sequencing errors", "method_in_brief": "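Nanobodies from a synthetic yeast display library (Saccharomyces cerevisiae BJ5465), induced 36–48 hours with galactose, were stained 1 hour at 4 °C with 10% biotinylated, detergent-solubilized Sf9 membrane reagent, enriched on streptavidin microbeads, then FACS-sorted. Anti-HA (expression) and streptavidin (reagent binding) fluorescence set low and high (top ~1%) gates. Polyreactivity labels come from the gate of origin. Genes were colony-PCR amplified, MiSeq 2 × 250 sequenced and filtered by CDR length.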", "values": [{"sequence": "QVELVESGGGLVQAGGSLRLSCAASGSTFSINAMGWYRQAPGKERELVADITWRGVRTYYADSVKGRFTISRDNAKNTVYLQMNSLKPEDTAVYYCAADVVVDGHPGFDYWGQGTQVTVSS", "polyreactivity (PSR sort gate)": "high polyreactivity"}, {"sequence": "QVELVESGGGLVQAGGSLRLSCAASGSTFVDNDMGWYRQAPGKERELVAAAITARGGSTYYADSVTGRFTISRDNAKNTDYIQMNSLKPEDTAVYYCAAGRPGELDYWGQGTQVTVSS", "polyreactivity (PSR sort gate)": "low polyreactivity"}, {"sequence": "QVELVESGGGLVQAGVSLRLSCAASGIISRGYAMGWYRQAPGKERELVAAISRSGGTTYYADSVKGRFTISRDNAKTTVYLQMNSLKPEDTAVYYCAARSKYFGYWGQGTQVTVSS", "polyreactivity (PSR sort gate)": "high polyreactivity"}, {"sequence": "QVELVESGGGLVQPGGSLRLSCAASGRTFYLNAMGWYRQAPGKEREFVARITWSGGSTYYADSVKGRFTISRDNAKNTVYLQMNSLKPEDTAVYYCAARVRLYRGFTKYDYWGQGTQVTVSS", "polyreactivity (PSR sort gate)": "high polyreactivity"}, {"sequence": "QVHHEESGGGLFQAGGRLRLSCAASGYIFYDYSMGWYRQAPGKERELVAAISSGGSTNYADSVKGRFTISRDNAKNTVYLQMNSLIPEDTAVYYCASDDRSYATWKRDYDYWGQGTHVTVSS", "polyreactivity (PSR sort gate)": "low polyreactivity"}, {"sequence": "QVHHVESAGGLVQAGASLRLSSAASGSTIYRYAMGWYRQTPGKERELVARIDWSDGSTNYADSVKGRFTISRDNAKNTVYLQMNSLKPEDTGVYYCASDTYYDTYDGEYEYWGQGTQVTVSS", "polyreactivity (PSR sort gate)": "low polyreactivity"}, {"sequence": "QVHHVESGGGLVQAGGCLRLSCAASGFIVRENAMGWYRQAPGKERELVAAISKSGGRTYYADSVKGRFTISRDNAKNTVYLQMNSLKPEDTAVFYCAAYPSYTIHPAGDYWGQGTQVTVSS", "polyreactivity (PSR sort gate)": "high polyreactivity"}, {"sequence": "QVHHVESGGGLVQAGGILRLSCAASGFTIFKYAMGWSRQKPGKERELVATISIDGITNYADSVKGRFTISRDNAKNTVYLQMNILKPEDTAVYYCHALSLYQQLGYWGQGTQVTVSS", "polyreactivity (PSR sort gate)": "low polyreactivity"}, {"sequence": "QVHHVESGGGLVQAGGSLRLSCAASGGTFYYNAMGWYRQAPGKERELVAAIDGSGGTTYYADSVKGRFTISRDNAKNTVYLQMNSLKPEDTAVYYCAAAGSPSVYGYGYWGQGTQVTVSS", "polyreactivity (PSR sort gate)": "low polyreactivity"}, {"sequence": "QVHHVESGGGLVQAGGSLRLSCAASGSTIDEYAMGWYRQAPGKERELVAAIDWSTGSTYYADSVKGRFTISRDNAKNTVYLQMNSLKPEDTAVYYCAADSGYGPYYYWGQGTQVTVSS", "polyreactivity (PSR sort gate)": "high polyreactivity"}, {"sequence": "QVHHVESGGVLVKAGGSLRLSCAASGRTIYAYAMGWYRQAPGQESELVAAITSGASTYYADSVKGRFTISRDNAKNTVYLQMNSLKPEDTGVYYCAKRVRYYKPGYDYWGLGTQVTVSS", "polyreactivity (PSR sort gate)": "low polyreactivity"}, {"sequence": "QVHIVESGGGLVQAAGSLRLSCAASGSTLAIYDMGWYRQAPGKERELVAAISGGGSTYADSVKGRFTISPDNAKNTVYLHMNSLKTEDTAVYYFNADGWGDLFWSNFRFDYWVQGTQVTVSS", "polyreactivity (PSR sort gate)": "low polyreactivity"}, {"sequence": "QVHIVESGGGLVQAGGRLRLSCADSGTTFSYYTMGWYRQSPGKERELVAAISTSGGSTYYADSVKGRFTISRDNAKNTVYLQMNSLKPEDTAVYYCDARYGRYYKYNYWGQGTQVTVSS", "polyreactivity (PSR sort gate)": "high polyreactivity"}, {"sequence": "QVHIVESGGGLVQAGGSLRLSCAASGLIFYLYTRGWSRQATGKERELVAAISRSGTITYYADSVKGRFTISRDNAKNTVYLQMNSLKPEDTAVYYCAATYTYIIGTRYDYWGQGTQVTVSS", "polyreactivity (PSR sort gate)": "high polyreactivity"}, {"sequence": "QVHLEESGAGLVQAGGSLRISCAASGFIFDYYAMGWYRQAPGKERELVATITSRGGSTYYADSVKGRFTISRDNAKNTVSLQMNRLKPDYNGVYYCAAVSHPGRKYYYWGQGTQVTVSS", "polyreactivity (PSR sort gate)": "high polyreactivity"}, {"sequence": "QVHLEESGGGLVQAGGSLRLSCAASGFTFGPYAMGWYRQAPGKERELDATIRSGDSTNYADSVKGRFTISRDNAKNTVYLQMNSLKPEDTAVYYCARDARASARRKRYDYWGQGTQVTVSS", "polyreactivity (PSR sort gate)": "low polyreactivity"}, {"sequence": "QVHLEESGGGLVQAGRSLRLTCAASGRTFLWYAMGSYRQAPGKETDLVAAIRRSGGGTYYADSVKGRFTISRDNAKNSVYLQMNRLKPEDSGFFYCNSDYRGYQRGVISDGFYYWGLGTQVTVSS", "polyreactivity (PSR sort gate)": "low polyreactivity"}, {"sequence": "QVHLGQSGGGLVQAGGSLRLSCAASAITFRGNAMGWYRQAPGKERDLVAVITKGGVSTYYADSVKGRFTISRDNAKNTVYLQMNSLKPEVTAVYYCAKYWSWRSVKDYYWGLGTQVTVSS", "polyreactivity (PSR sort gate)": "high polyreactivity"}, {"sequence": "QVHLLESGGGLVQAGGSLRLSCAASGRTFIRNAMGWYRQAPGKERELVASIRWSGGSTYYADSVKGRFTISRDNAKNTVYLQMNSLKPEDTAVYYCARRKQSFGSWPPSEPVADDYWGQGTQVTVSS", "polyreactivity (PSR sort gate)": "low polyreactivity"}, {"sequence": "QVHLQESGAGLVQVGGSQRLSCAASGNIFYNYAMGWSRHAQGKEREFDATINHGTSINYADSVKGRFTISRDNAKNNVYLQMNCLKPEDTAVYYCAADLSWTDNLFYWGQGTQVSVSS", "polyreactivity (PSR sort gate)": "low polyreactivity"}, {"sequence": "QVHLQESGGGLEQAGGSLSPSCAASGSISNGVPMGWYRQAPGEERELVATTVLGATTNYADSVKGRFTISRGNAKNPVYLQMNSLKPEETAVYYCAAPLRYDKGFSYWGQGTQVTVSS", "polyreactivity (PSR sort gate)": "low polyreactivity"}, {"sequence": "QVHLQESGGLVQAGGLRLSCAASGSVSYQEAMGWYPQAPGKERELVATISFGANTNYADSVKGRFTISRDNAKNTVYLQRNCLKPEDTAVYYCAAESLFDDYYGYWGQGTQVTVSS", "polyreactivity (PSR sort gate)": "low polyreactivity"}, {"sequence": "QVHLVDSGGGIVQAGGSLRLSCAATGRISGVYAMVWYRQAPGKERELVAAISWSGGRTYYADSVKGRFTISRDNAKNTVYLQMNSLKPEDTAVYYCNADTGFRSYRRDYWGQGTQVTVSS", "polyreactivity (PSR sort gate)": "low polyreactivity"}, {"sequence": "QVHLVDSGGGLVQAGGILRLSCSDYGSTFALYAMGWYRQSPGKVSELVAPITTSGGNTYYADSVKGRFTISRDNAKNTVYLQMNSLKPEDTAVYYCAADPWWSYTSYLRYYNLEMNYWGQGTQVTVSS", "polyreactivity (PSR sort gate)": "high polyreactivity"}, {"sequence": "QVHLVDSGGGLVQAGGSLRLSCAASGFIFWSYAMGWYRQAPGKERELVAAISFRGGSTFYADSVKGRFTISRDNAKNTVYLQMNSLKPEDTAVYYCAVGVYPSYRGPTFSTRRDYWGQGTQVTVSS", "polyreactivity (PSR sort gate)": "low polyreactivity"}, {"sequence": "QVHLVDSGGGLVQAGGSLRLSCAASGFTFDYYAMGWYRQAPGKERELVAAITSDGSTYYADSVKGRFTISRDNAKNTVYLQMNSLKPEDTAVYYCAADGISLYATAYDYWGQGTQVTVSS", "polyreactivity (PSR sort gate)": "low polyreactivity"}, {"sequence": "QVHLVDSGGGLVQAGGSLRLSCAASGSISYDNAMGWYRQAPGKERELVAAITFSGDSTNYADSVKGRFTISRDNAKNTVYLQMNSLKPEDTAVYYCAASQVSDTTRFGYWGQGTQVTVSS", "polyreactivity (PSR sort gate)": "low polyreactivity"}, {"sequence": "QVHLVDSGGGLVQAGGSLRLSCAASGSTFYYYVMGWYRQAPGKERELVAAISSGGHPNYADSVKGRFTISRDNAKNTVYLEMNSLKPEDTAVYYCAAKARRGTLLRYGYWGQGTQVTVSS", "polyreactivity (PSR sort gate)": "high polyreactivity"}, {"sequence": "QVHLVDSGGGLVQAGGSLRLSCAASGYTFIAYTMGWYRQAPGKERELVAAITTGGRTYYADSVKGRFTISRDNAKNTVYLQMNSLKPEDTAVYYCAAYYSARYKYGGVDYWGQGTQVTVSS", "polyreactivity (PSR sort gate)": "high polyreactivity"}, {"sequence": "QVHLVDSGGGLVQARGSLRLSCAASGFTIGPYAMGWYRQAPGKERELVAAITIRGGSTYADSVKGRFTISRDNAKNTVYLQMNSLKPEDTAVYYCATVRALEYNYWGQGTQVTVSS", "polyreactivity (PSR sort gate)": "low polyreactivity"}, {"sequence": "QVHLVEAGGGLVQAGGSRRLSCAASGGIFTDYTMGWYRQAPGKETELVAAITWTGGSTYYADSVKGRFTISRDNAKNTVYLQMNSLKPEDTAVYDCAADDYWVNLDYWGQGTQVTVSS", "polyreactivity (PSR sort gate)": "low polyreactivity"}, {"sequence": "QVHLVESAGGLVQAGGSLSLSCAASAITLYFNAMGWYRQAPGKEREWVAAISWSGDSTYYADSVKGRFTISRDNAKNTVYLQMNSLKPEDTAVYYCAADRYTYYHYAWYEYWGQGTQVTVSS", "polyreactivity (PSR sort gate)": "low polyreactivity"}, {"sequence": "QVHLVESGAGLDQAGVRLRLSCAPSGTTFDYNTMGWYRQAPGKERELVASINNSGGSTYYADSVKGRFTISRDNAKNTVYLQMISLKPVDTAVYYCAAVSYRRHFGPYNYWGQGTQVTVSS", "polyreactivity (PSR sort gate)": "low polyreactivity"}, {"sequence": "QVHLVESGAGLVQAGGSLRLSCPASGSIFFLYPMGWYRQAPGKESELVAAITWRVGSTYYADSVKGRFTISRDNAKNTVYLQMNSLKPEDTAVYYCAAYFLGFQVRYDYWGQGTQVTVSS", "polyreactivity (PSR sort gate)": "high polyreactivity"}, {"sequence": "QVHLVESGGALVQAGGSLPLSFSASGSIFTYYAMGWYRQQPGKERELVAAINSGGRTNYADSVKGRFTISRDNAKNTVYLQMNSLKPEDTAVYYCAKYGVLQYGYWGQGTQVTVSS", "polyreactivity (PSR sort gate)": "low polyreactivity"}, {"sequence": "QVHLVESGGALVQAGGSLRLSCAASGFIFNHYAMGWYRQAPGKEQEFVAAISWSGGSTYYADSVKGRFTISRDNAKITVYLQMNSLKPEDTAVYYCAAAVWYRGWYRYDYWGQGTQVTVSS", "polyreactivity (PSR sort gate)": "low polyreactivity"}, {"sequence": "QVHLVESGGCLVQAGGSLRLSCAASGYIIGINAMACYRQAPRKESELVPAISRSGGSTYYAESVKGRFTISRDNAKNTVYLQMNSLKPEDTAVYYCASDILRFYSDTYGTEYWGQGTQVTVSS", "polyreactivity (PSR sort gate)": "high polyreactivity"}, {"sequence": "QVHLVESGGCLVQAGGSLRLSCSASRSIFPNNDMGWYRQQPGKERELVPAITTRGTSTYYAESVKGRFTISRDYAKNTVYLQMKSLKPEDTAVYFCAVGRRGYSAGGVAYYYWGQGTQVTVSS", "polyreactivity (PSR sort gate)": "low polyreactivity"}, {"sequence": "QVHLVESGGGFVQAGGSLRLICAASGITFGIYVMGWSRQAPGKERELVATISRSDDNSYYADSVKGRFTISRDNAKNTVYLQMNSLKPEDTAVYYCAADGVISAWYSSRDDYWGQGTQVTVSS", "polyreactivity (PSR sort gate)": "low polyreactivity"}, {"sequence": "QVHLVESGGGFVQAGGSLRVSCAASRRIYNLNAMGWYRQAPGKERELVAAISKSGTRTYYADSVKGRFTISRDNAKNTVYLPMNSLKPEDTAVYSCAARRSSVTQSTTYPAVRQRYGYWGQGTQVTVSS", "polyreactivity (PSR sort gate)": "high polyreactivity"}, {"sequence": "QVHLVESGGGIDQAGGSLRLSCAASGSIFRNYAMAWKRQAPGKERELVAFITRGGSTYYADSVKVRFTISRDNAKNTVYFQMNSLKPEHTAVYYCAADFWPAGLDLGYWGQGTQVTLSS", "polyreactivity (PSR sort gate)": "low polyreactivity"}, {"sequence": "QVHLVESGGGIVQAGGSLRLSCAASGRTFGVNAMGWYRQAPGQEMELVAAISYSGASTFYADSLKGRFTISRDKAKNNVYLQMNSLKPEDTAVYYCAKRVVRYGKRMGYWGQGTQVTVSS", "polyreactivity (PSR sort gate)": "high polyreactivity"}, {"sequence": "QVHLVESGGGLDQAGGSLRLSCAASGIIFFKNAMGWYRPAPGKERELVAAISSTDTRTYYADSVKGRFTISRDNAKNTVYLQKNSLKPEDTAVYYCAADYIYYYEQYLWYTYDYWGQGTQVTLSS", "polyreactivity (PSR sort gate)": "high polyreactivity"}]}]}
